Assay results reported in article PMC6336354, “A transient helix in the disordered region of dynein light intermediate chain links the motor to structurally diverse adaptors for cargo transport” (PLoS Biology, 2019).

T1: HOOK3(2–552)::Strep-tag II (human, UniProt Q86VS8 2-552)
T1 construct: human Hook homolog 3 (HOOK3), residues 2-552; used for the GST pull-downs; also called Hook homolog 3; source: E. coli Rosetta, purified (Ni-NTA, TEV cleavage, Strep-Tactin; dialysis or SEC); not shown: 6xHis::MBP, N-terminal, cleaved; Strep-tag II (after linker GSGSGR), C-terminal, kept
T1 sequence (looked up): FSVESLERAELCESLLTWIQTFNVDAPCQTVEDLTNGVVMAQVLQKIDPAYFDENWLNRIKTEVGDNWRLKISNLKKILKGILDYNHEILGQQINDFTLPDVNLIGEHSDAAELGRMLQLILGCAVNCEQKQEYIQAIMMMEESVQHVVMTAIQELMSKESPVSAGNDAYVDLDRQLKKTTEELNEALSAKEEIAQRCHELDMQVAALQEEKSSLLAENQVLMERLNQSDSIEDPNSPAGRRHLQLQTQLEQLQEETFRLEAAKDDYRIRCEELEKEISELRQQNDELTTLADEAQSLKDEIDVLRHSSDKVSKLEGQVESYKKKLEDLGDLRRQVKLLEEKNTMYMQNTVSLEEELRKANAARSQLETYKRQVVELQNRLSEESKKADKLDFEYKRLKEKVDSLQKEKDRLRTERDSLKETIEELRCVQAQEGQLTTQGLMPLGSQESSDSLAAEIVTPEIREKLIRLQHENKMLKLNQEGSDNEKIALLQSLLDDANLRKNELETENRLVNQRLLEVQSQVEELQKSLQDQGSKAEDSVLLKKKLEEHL

T2: RILP(1–401)::Strep-tag II (human, UniProt Q96NA2 1-401)
T2 construct: also called RILP::Strep-tag II; source: Sf21 insect cells (baculovirus), purified (Strep-Tactin Sepharose); not shown: Strep-tag II (after linker GSGSGR), C-terminal, kept
T2 sequence (looked up): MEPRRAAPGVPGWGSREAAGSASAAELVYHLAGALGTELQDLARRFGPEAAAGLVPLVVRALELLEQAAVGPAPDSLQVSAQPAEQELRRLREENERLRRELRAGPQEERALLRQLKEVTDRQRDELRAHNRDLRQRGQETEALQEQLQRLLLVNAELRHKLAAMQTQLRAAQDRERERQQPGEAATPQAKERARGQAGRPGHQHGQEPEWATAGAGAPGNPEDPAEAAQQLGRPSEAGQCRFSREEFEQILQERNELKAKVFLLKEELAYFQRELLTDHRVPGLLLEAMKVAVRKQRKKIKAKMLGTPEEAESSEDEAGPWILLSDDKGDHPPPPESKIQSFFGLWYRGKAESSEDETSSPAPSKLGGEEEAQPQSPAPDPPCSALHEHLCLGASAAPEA

T3: RAB11FIP3(2–756)::Strep-tag II (human, UniProt O75154 2-756)
T3 construct: source: E. coli BL21, purified (Ni-NTA, TEV cleavage, Strep-Tactin; dialysis or SEC); not shown: 6xHis::MBP, N-terminal, cleaved; Strep-tag II (after linker GSGSGR), C-terminal, kept
T3 sequence (looked up): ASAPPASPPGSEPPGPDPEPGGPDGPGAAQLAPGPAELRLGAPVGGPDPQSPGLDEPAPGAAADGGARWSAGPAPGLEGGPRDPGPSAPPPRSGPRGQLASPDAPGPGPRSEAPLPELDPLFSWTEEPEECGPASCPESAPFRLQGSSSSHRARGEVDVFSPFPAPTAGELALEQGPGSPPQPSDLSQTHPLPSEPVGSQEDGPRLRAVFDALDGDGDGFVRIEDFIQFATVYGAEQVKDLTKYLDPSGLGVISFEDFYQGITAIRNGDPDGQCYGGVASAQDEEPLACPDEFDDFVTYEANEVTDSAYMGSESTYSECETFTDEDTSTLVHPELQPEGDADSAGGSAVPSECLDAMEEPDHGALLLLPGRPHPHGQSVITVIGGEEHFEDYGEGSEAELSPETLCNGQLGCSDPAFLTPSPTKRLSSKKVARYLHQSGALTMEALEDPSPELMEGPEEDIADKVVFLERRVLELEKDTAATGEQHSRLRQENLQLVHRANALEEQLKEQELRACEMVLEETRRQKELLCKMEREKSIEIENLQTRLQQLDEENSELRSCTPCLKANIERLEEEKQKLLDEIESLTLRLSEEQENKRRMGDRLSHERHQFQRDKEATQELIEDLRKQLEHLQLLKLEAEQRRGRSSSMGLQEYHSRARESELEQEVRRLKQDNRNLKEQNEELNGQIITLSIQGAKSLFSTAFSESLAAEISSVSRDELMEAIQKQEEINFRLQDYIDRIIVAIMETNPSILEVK

B1: GST::LIC1(414–471)::6xHis (domain or fragment, human)
chain: WSSNVASVSPIPAGSKKIDPNMKAGATSEGVLANFFNSLLSKKTGSPGGPGVSGGSPAG
notes: single N-terminal tryptophan added in the construct; human dynein light intermediate chain 1 (DYNC1LI1), residues 414-471; source: E. coli BL21, purified (glutathione agarose, Ni-NTA; dialysis or SEC); not shown: GST, N-terminal, kept; 6xHis (after linker GSGSG), C-terminal, kept
B2: GST::LIC2(375–450)::6xHis (domain or fragment, human)
chain: WATPTRASESPARGPSGSPRTQGRGGPASVPSSSPGTSVKKPDPNIKNNAASEGVLASFFNSLLSKKTGSPGSPGAG
notes: single N-terminal tryptophan added in the construct; source: E. coli BL21, purified (glutathione agarose, Ni-NTA; dialysis or SEC); not shown: GST, N-terminal, kept; 6xHis (after linker GSGSG), C-terminal, kept
B3: GST::LIC2(375–492)::6xHis (domain or fragment, human)
chain: WATPTRASESPARGPSGSPRTQGRGGPASVPSSSPGTSVKKPDPNIKNNAASEGVLASFFNSLLSKKTGSPGSPGAGGVQSTAKKSGQKTVLSNVQEELDRMTRKPDSMVTNSSTENEA
notes: single N-terminal tryptophan added in the construct; also called LIC2-C; source: E. coli BL21, purified (glutathione agarose, Ni-NTA; dialysis or SEC); not shown: GST, N-terminal, kept; 6xHis (after linker GSGSG), C-terminal, kept
B4: GST::LIC1(402–471)::6xHis (domain or fragment, human)
chain: WPGGSPRTPNRSVSSNVASVSPIPAGSKKIDPNMKAGATSEGVLANFFNSLLSKKTGSPGGPGVSGGSPAG
notes: single N-terminal tryptophan added in the construct; human dynein light intermediate chain 1 (DYNC1LI1), residues 402-471; source: E. coli BL21, purified (glutathione agarose, Ni-NTA; dialysis or SEC); not shown: GST, N-terminal, kept; 6xHis (after linker GSGSG), C-terminal, kept

Target: T4, BICD2(2–422)::Strep-tag II (human, UniProt Q8TD16 2-422)
T4 construct: human bicaudal D homolog 2 (BICD2), N-terminal region, residues 2-422; also called bicaudal D homolog 2; source: E. coli BL21, purified (Ni-NTA, TEV cleavage, Strep-Tactin; dialysis or SEC); not shown: 6xHis::MBP, N-terminal, cleaved; Strep-tag II (after linker GSGSGR), C-terminal, kept
T4 sequence (Q8TD16 2-422): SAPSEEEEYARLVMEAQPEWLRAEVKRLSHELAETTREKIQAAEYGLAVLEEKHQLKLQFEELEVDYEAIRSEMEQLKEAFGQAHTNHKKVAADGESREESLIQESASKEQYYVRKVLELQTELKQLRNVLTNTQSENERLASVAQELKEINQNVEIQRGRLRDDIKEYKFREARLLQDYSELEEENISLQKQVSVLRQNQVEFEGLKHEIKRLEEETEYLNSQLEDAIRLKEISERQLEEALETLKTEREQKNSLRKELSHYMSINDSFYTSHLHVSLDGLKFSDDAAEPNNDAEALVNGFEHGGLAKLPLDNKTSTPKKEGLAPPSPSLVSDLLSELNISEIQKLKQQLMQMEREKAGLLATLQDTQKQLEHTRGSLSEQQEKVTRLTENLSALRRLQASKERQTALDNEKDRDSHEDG
Assay: pull-down; GST::LIC::6xHis (50 pmol) with 50 or 250 pmol adaptor and glutathione agarose, 1 h at 4°C, 150 μL of 50 mM HEPES, 100 mM NaCl, 5 mM DTT, pH 7.5, 0.1% Tween 20; Coomassie staining and immunoblot against Strep-tag II
Conditions: both partners purified

Row | Binder | binding result
1 | B1 | binds
2 | B2 | binds
3 | B3 | binds
4 | B4 | binds

Target: T1, HOOK3(2–552)::Strep-tag II
Assay: as above
Conditions: both partners purified

Row | binding result | Binder
5 | binds | B1
6 | binds | B2
7 | binds | B3
8 | binds | B4

Target: T2, RILP(1–401)::Strep-tag II
Assay: as above
Conditions: both partners purified

Row | binding result | Binder
9 | binds | B1
10 | binds | B2
11 | binds | B3
12 | binds | B4

Target: T3, RAB11FIP3(2–756)::Strep-tag II
Assay: as above
Conditions: both partners purified

Row | binding result | Binder
13 | binds | B1
14 | binds | B2
15 | binds | B3
16 | binds | B4
